{"source": "the DeepSol protein solubility set"}
{"assay": "soluble on expression in E. coli; label from the status in PepcDB or PDB records"}
{"sequence": "MSLDLHTHTIYSDGIGSVIDNVNMAEIRGLRLLGISDHIHFFTPSKFLKYVNEVRSIGREAEIPVLVGIEANITENGPDVTEDFAKHLDYVIASVHDWFGEGEVYRYIERIKLALMDENVTIIGHFGNVFPWIGYPTEEQIKEVLDVAEEYGKAFEISSRYRVPDLEFVKMCIKRGIKLVFASDAHRPEDVGRVDWSIKVFEKAGGKKEDLLFSEEGHHHHHH", "soluble on expression in E. coli": "soluble"}
{"sequence": "MNIDLTPYYAEPGEQPFSARRMAMPWRNHVPLSPEQIPAGWQTLKQQSVPARKRLLYLHIPFCATHCTFCGFYQNKLRDDSTATYTRYLLQELAMEADSPLHQSAPIHAVYFGGGTPTALAADELSQIIRAIRTSLPLAPDCEITVEGRAMDFDDERIDACLDAGANRFSIGIQTFDTRIRQRMARTSDKQQSIRFLERLCGRDRAAVVCDLMFGLPGQTPEIWREDLAIVSDLPLDGVDLYALNLLPTTPLAKAAENQRVALPDVVARRDFYRTGAAFLADSGWHQLSNSHWARTTRERNLYNLLIKQGADCLAMGSGAGGNINGQAYMMERSLERYYQQIDQGQKPIMMMTPASSTGPWQHQLQAGIEVGRIKLPQLTQHARELQPLLSQWHQAGLTCDDSTCLRLTNDGRFWANNLMQALQQIIPQLNAEEHAHLEHHHHHH", "soluble on expression in E. coli": "soluble"}
{"sequence": "MSESYTLIKELKRQLKSAGLHYVDVAQHLNLSEGSVKRLLAEGQHISLERLERICQLIGLEMAELFKLAAAHNKGLESLTLEQEKQLVDDKALLLVAICVVNGYQFEQIVQQYTFNELELVQKLAHLDRLNIIDLQPNNKIRLRISPTFKWQMGGPIQRFFQQQVQDAFFQSYFSGEDEQLSMATGLMSVPTNKKLQQKLQKVIDEFYQACQSDSSLDMDEKHGTSLIIAMRRWTFPLFEPWERKPTQKSQN", "soluble on expression in E. coli": "not soluble"}
{"sequence": "MGSDKIHHHHHHMSDVLSQEEINQLIEALMKGELKEEDLLKEEEEKKVKPYDFKRPSKFSKEQLRTFQMIHENFGRALSTYLSGRLRTFVDVEISIDQLTYEEFIRSVMIPSFIVIFTGDVFEGSAIFEMRLDLFYTMLDIIMGGPGENPPNRPPTEIETSIMRKEVTNMLTLLAQAWSDFQYFIPSIENVETNPQFVQIVPPNEIVLLVTASVSWGEFTSFINVCWPFSLLEPLLEKLSDRFWMMGRKPEKVEERMEELRKASQKIPVTVQAVIGETELRLKEILDLEVGDVIRLGTHYKDEIRIDVEGRPKFRGIPGVFKGKYAVKVTGEFTNGGEYE", "soluble on expression in E. coli": "not soluble"}
{"sequence": "MGSDKIHHHHHHMAVSSNGGAIKAVIYDCDGVMFDSFEANLAFYQRIMEMMGRPRLSRDNEEQMRILHTYANREVLAHFFPSPGDWEEAVRCAGAIDYRELVPLMIMEEGFREALDTLKGRVGLGVCTNRSTSMDMVLRLFSLDSYFSIVMTASRVTNPKPHPEPLLKVLEHFGIGPREALFVGDSEVDRLSAEAAGVPFVAYKAPLPAAYRMEHHREIIDLLG", "soluble on expression in E. coli": "not soluble"}
{"sequence": "MARRQTSSNGAGETRENLLRLAARIFSAQGYSGTTMRSIAQQAGIETASIYYHFPSKEDLVDEVMEIGATAIIQHMTERIEALGDGATAEERFRAAVLGQMAGMVKHGEYTLASSSLIEQLPEKVRERQSKRRESYQKLWAGLLEDLRAEGRLRSDVDLHLARMFILGSVQSIRYWFNPRKGSLEKVAAQLCDLFFEGVGQRG", "soluble on expression in E. coli": "soluble"}
{"sequence": "MIEYSSFVLDNGLKVFVHEDRTTSMAALNILYDVGSKDEVVTKTGFAHLFEHLMFGGSKHIPSYDEALQKAGGENNAFTSPDITNYYITIPANNIETAFWLESDRMMALSFDPKVLEVQRSVVIEEFKQRYLNQPYGDVWLKLRPLAYKEHSYKWATIGKEISHIEEATMDDVRDFFYSYYLPNNAYMVVAGNVTLEQVKKLSEKWFAPIPSGTRRKRNIP", "soluble on expression in E. coli": "not soluble"}
{"sequence": "SAQDVDECSLGANPCEHAGKCINTLGSFECQCLQGYTGPRCEIDVNECVSNPCQNDATCLDQIGEFQCICMPGYEGVHCEVNTDECASSPCLHNGRCLDKINEFQCECPTGFTGHLCQVDLHHILDAQKMVWNHR", "soluble on expression in E. coli": "soluble"}
{"sequence": "MFDRYDAGEQAVLVHIYFSQDKDMEDLQEFESLVSSAGVEAMQVITGSRKAPHPKYFVGEGKAVEIAEAVKATGAAVVLFDHALSPAQERNLERLCECRVIDRTGLILDIFAQRARTHEGKLQVELAQLRHLATRLVRGWTHLERQKGGIGLRGPGETQLETDRRLLRNRIVQIQSRLEKVEKQREQGRQSRIKADVPTVSLVGYTNAGKSTLFNQITEARVYAADQLFATLDPTLRRIDVADVGETVLADTVGFIRHLPHDLVAAFKATLQETRQATLLLHVVDAADVRVQENIEAVNTVLEEIDAHEIPTLMVMNKIDMLDDFEPRIDRDEENKPIRVWLSAQSGVGIPQLFQALTERLSGEVAQHTLRLPPQEGRLRSRFYQLQAIEKEWMEEDGSVSLQVRMPIVDWRRLCKQEPALIEYVILEHHHHHH", "soluble on expression in E. coli": "soluble"}
{"sequence": "MIKKDYAQIKETLYTETLENGLKVYLLPKNDFQKTYGLFTTDYGSIDNTFVPIGQEEMIEVPDGIAHFLEHKMFEKEDGDVFQKFGQQGASANAFTSFTKTSYLFSTTDQVTQNLETLLDFVQSPYFTKETVEKEKGIIGQEIQMYLDDPNWRLFFGILGNLYPKHPLHIDIAGTVASIAEITAEDLYTCYNTFYHPSNMTLFVVGKMDPEALMAFIRENQAAKEFPAAQPIRRHFPEETAADIVKESAIEMTVTRAKVLVGLKGLDEVPTTGRDLMKYQVTVNLLLQLLFGNTSQNYLALYDEGLLDDSFSYDFNLDRSFHFADIGGDSEQPEVLAERIEAILLSATTSPELTEENLSLLKKKMIGKYFQSLNSLEYIANQFSQSLFGETTLFDKIEVIESIQLADVRQVAETFIREEGLSRFYMYPKGETEQ", "soluble on expression in E. coli": "not soluble"}
{"sequence": "MAHHHHHHMEGKKCFYITEKGKKQNFRNIKLITFDLDHTIWNIDGLLNYADKECYEYMKKNYRRLYDYLQEEYQLSITNLVKQLLENKIEDNNDGVQTLTNMRIDALKFLAKKTNYDEGKFVSEIQELWKEKKNDVHLFISPGTLEYLRELKRRGYTLGAITNGDSDVNGIKFLNEIFTFVIRSMDYNHSKPSVEIFNIAENILKKKNFHFEIHQWMHVGDDVYTDIMGAKNKNINCAWITMFRDGSEVPPNDWYPYLKLKLEENGDSHLSQYDPFADGLFSRFRRRDVVLPYEYIDIEIRHCRDLDAILA", "soluble on expression in E. coli": "soluble"}
{"sequence": "KEKIAILVDVQNVYYTCREAYRSNFDYNQFWYVATQEKEVVSAKAYAIASNDPKQRQFHHILRGVGFEVMLKPYIQRRDGSAKGDWDVGITLDAIEIAPDVDRVILVSGDGDFSLLVERIQQRYNKKVTVYGVPRLTSQTLIDCADNFVAIDDDFL", "soluble on expression in E. coli": "not soluble"}
{"sequence": "MDHRRLWRAANRLASDRLGSGEMCCALTSPTSTAQSPSTSFFFGSSLPFLLATIPHTLISAIAEHAILHAWYGGPHVYPDAKLPCPTATFVFKDSPLLRVDDVTSLQWDRAQAANFLVAVLRQPAVQKELRQRLWSAVQNCHRGVLRKLESLAVQKDVEGASKEAAADRLILLDQEPGMPSPPSLSLREVRDDLFSFDELLYFVRVSPSTSSTSRQQRVECESLRSTHLFRFVTSRADVAAALRDRPRSNVSDLLFCVSLRNGDTSAKASSAPVSLSTRDKLWLLLSEMVRLRYLVAYLLNFEVMLHRVRNSTRHSQRGQSTSKEVDSAGFPGNSSSEHADAQDAENAKCIAAVFRFLDIRLHTRLAVSPHHRRFLRHARVRHCERSATPEPPDRATAAHEATDADTSVRHEARRYATVQELFSAFSKALEESTTPPSQLPATVASFTSLAKSPGEGQGAAENGIEAMSKRPDHMRGRSARQNVVQARATSDGPSSLSDTDDEFLKAIVSATRQDQPPDSTVQSTPMRATHRGGVKSPSANPGELPCSRGLPGRRCLTAERSTTCLPQSRRAAEDPHPFVDVVFERKSNRSKWPFQALRARTNASNFKVRFGGSHDASSHAAVICFQLSCTREEREKAEIAPLSGKSAADLLQQYPYVTHVNGISARKVELVVRLFRSAHVLKLRLARRPPDR", "soluble on expression in E. coli": "soluble"}
{"sequence": "MGSDKIHHHHHHMAYRSAPIADDIIWRAAPQPEDASLADAVRETIASTRKHLLDFIRLDETPPPAAMTLAQWTRPATFRSLLAAYSDHIYRHTPGLPRENKPLLSLWAQWYIGLMTPPLMLALLTQARAINVSAEHIHVEFHETGRAACFWLDVHQDNLATERSPEERMETLIVSALQPVIQALEATGDINAKLIWSNTGYLINWYLTEMKPLLGEALLATLRQRCFFEKQLSDGQDNPLWRTVVMRDGLLVRRTCCQRYRLPDVQQCGDCTLK", "soluble on expression in E. coli": "not soluble"}
